Data on ten molecules can be found in patent US20210155689A1 (SHANGHAI PHARMAEXPLORER, published 2021).

The target in test [1] is T1, monkey LAG-3 on cells (HEK293-cLAG-3 stable cell line) (monkey, UniProt P18627 24-525 (human entry)).
T1 construct: Full-length monkey (Chinese monkey) LAG-3 gene expressed on HEK293 cells
T1 chain: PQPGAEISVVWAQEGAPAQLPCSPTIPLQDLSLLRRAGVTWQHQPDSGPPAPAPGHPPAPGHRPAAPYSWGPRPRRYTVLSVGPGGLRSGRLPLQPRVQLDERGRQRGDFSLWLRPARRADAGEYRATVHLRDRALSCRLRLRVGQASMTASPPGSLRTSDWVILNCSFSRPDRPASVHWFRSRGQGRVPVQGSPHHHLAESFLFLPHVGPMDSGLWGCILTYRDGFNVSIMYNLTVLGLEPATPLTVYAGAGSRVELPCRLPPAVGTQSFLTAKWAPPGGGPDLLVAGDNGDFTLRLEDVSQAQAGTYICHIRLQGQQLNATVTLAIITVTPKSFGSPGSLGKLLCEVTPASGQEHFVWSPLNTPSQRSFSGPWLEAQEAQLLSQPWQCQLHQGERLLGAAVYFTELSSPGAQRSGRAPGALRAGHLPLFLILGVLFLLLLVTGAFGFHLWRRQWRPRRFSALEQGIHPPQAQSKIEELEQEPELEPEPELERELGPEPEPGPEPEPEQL
Nature of the test: FACS, HEK293-cLAG-3, antibody 0.320 nM. The source says: (§1) The pIRES plasmid with the monkey-derived full-length gene was transfected into the HEK293 cell line to construct a HEK293 stable cell line containing monkey LAG-3 (herein referred to as HEK293-cLAG-3 stable cell line). The HEK293-hLAG-3 stable cell line and HEK293-cLAG-3 stable cell line were expanded in a T-75 cell culture flask to a 90% confluence. The medium was aspirated, and the cells were washed with HBSS (Hanks' Balanced Salt Solution) 1-2 times, then treated with a enzyme-free cell dissociation fluid (Versene solution: Life technology) and the cells were collected. The cells were washed with HBSS buffer for 1-2 times. After counted, the cells were diluted with HBSS to 1-2×10⁶ cells per ml, added with 1% goat serum blocking solution, incubated on ice for 20-30 minutes, and then washed with HBSS for 2 times by centrifugation. The collected cells were suspended in the FACS buffer (HBSS+1% BSA) to 2×10⁶ cells/ml, added as 100 microliters per well to a 96-well FACS reaction plate, added with 100 microliters per well of the antibody sample to be tested, incubated on ice for 1-2 hours. The plate was washed twice with the FACS buffer by centrifugation, added with 100 microliters of fluorescent (Alexa 488)-labeled secondary antibodies per well, and incubated on ice for 0.5-1.0 hours. The plate was washed 2-3 times with FACS buffer by centrifugation, added with 100 μl fixative solution (4% Paraformaldehyde) per well to suspend the cells. 5-10 minutes later, it was washed 1-2 times with FACS buffer by centrifugation. The cells were suspended with 100 microliters of FACS buffer, FACS (FACSCalibur, BD) was used for detection and the results were analyzed.

For test [2], the target named is T2, LAG-3-hFc protein (human LAG-3 extracellular region with hFc tag) (human, UniProt P18627 23-450).
T2 construct: also called hLAG-3-hFc; LAG-3 protein; not shown: human IgG Fc fragment (hFc) of the pCpC vector
T2 sequence: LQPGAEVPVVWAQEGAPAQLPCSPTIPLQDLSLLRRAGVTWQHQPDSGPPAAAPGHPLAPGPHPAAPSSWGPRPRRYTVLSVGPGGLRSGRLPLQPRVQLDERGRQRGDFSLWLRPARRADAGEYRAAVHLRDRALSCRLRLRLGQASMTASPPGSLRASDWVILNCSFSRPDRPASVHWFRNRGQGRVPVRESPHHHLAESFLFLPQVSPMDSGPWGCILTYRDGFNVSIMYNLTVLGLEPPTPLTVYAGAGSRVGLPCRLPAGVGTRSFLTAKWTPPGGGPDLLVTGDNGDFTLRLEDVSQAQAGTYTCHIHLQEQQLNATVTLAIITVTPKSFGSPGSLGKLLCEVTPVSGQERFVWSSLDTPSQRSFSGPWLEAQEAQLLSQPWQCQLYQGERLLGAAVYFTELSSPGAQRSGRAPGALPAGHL
Briefly: FACS, inhibition of LAG-3-hFc binding to MHC II on Raji cells, antibody 22.222 nM. How it is done: (§2) The FACS reaction plate incubating the Raji cells was centrifuged to discard the supernatant. The above mixture was added as 100 μl per well to Raji cells and incubated on ice for 1-2 hours. The plate was washed twice with blocking solution (PBS, 2% fetal bovine serum) by centrifugation, added with 100 microliters of fluorescent (Alexa 488)-labeled secondary antibodies per well, and incubated on ice for 1.0 hours. The plate was washed 2-3 times by centrifugation with blocking solution (PBS, 2% fetal bovine serum), added with 100 microliters of PBS per well to suspend cells, and detected using FACS (FACS Calibur, BD) and the results were analyzed. Wherein, the IgG control was murine IgG, and the data in the table is the inhibition rate (%).

Test [3] addresses T3, human LAG-3 (full length, on the cell surface) (human, UniProt P18627 23-525).
T3 construct: Full-length human LAG-3 expressed on cells; also called HEK293-hLAG-3; HEK293 cells transfected with LAG-3 gene
T3 sequence: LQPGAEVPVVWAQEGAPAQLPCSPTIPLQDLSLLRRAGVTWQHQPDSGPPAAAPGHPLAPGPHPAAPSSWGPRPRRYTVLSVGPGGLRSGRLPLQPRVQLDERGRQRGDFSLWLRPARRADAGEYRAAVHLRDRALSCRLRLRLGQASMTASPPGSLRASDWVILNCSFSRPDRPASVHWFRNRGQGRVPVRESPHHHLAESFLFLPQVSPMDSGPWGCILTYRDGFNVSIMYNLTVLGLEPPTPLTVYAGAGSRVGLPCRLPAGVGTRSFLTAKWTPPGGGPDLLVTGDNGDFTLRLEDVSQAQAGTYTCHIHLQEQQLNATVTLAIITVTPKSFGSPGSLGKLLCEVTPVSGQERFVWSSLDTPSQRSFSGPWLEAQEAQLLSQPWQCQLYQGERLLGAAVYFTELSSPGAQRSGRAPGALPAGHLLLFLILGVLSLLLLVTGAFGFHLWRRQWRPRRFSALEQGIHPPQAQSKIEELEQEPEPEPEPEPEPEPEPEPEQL
Briefly: FACS, HEK293-hLAG-3; 0.000 nM.
Source text: as §1

Test [4] has as its target T4, monkey LAG-3 (full length, on the cell surface) (monkey, UniProt P18627 24-525 (human entry)).
T4 construct: also called HEK293-cLAG-3; monkey LAG-3 protein on the cell surface
T4 chain: T1 chain
Briefly: FACS, HEK293-cLAG-3; 200.000 nM.
Source text: as §1

For test [5], the target named is T5, human LAG-3 protein with hFc tag (hLAG-3-hFc protein) (human, UniProt P18627 23-450).
T5 construct: also called immunogen 1; LAG-3 extracellular domain protein; not shown: human IgG Fc fragment (hFc) of the pCpC vector
T5 sequence: T2 sequence
Briefly: FACS, blocks LAG-3-hFc binding to MHC II on Raji; 66.667 nM. The protocol: as §2

Where a chain is given by its changes, count along the chain named.

B1: 556F6B8 mouse-human chimeric antibody (antibody, V domains shown)
VH: RVQLKQSGPGLVQPSQSLSITCTVSGFSLIKYGVHWVRQSPGEGLEWLGVIWRGGITDYNAAFMSRLSITKDNSKSQVFFKMNSLQADDTAIYYCAKWDGPLAMDYWGQGTSVTVSS
VL: DIVMTQSHKFLSTSVGDRVSITCKASQDVGTTVAWYQQKPGQSPKLLIYWASTRHTGVPDRFTGSGSGTDFTLTISNVQSEDLADYFCQQYSSYPYTFGGGTKLEIK
notes: also called mAb123-556F6B8; 556F8B8
B1 displayed a Mean fluorescence intensity in test [1] of 8.37. Further, in test [2], the “Inhibition rate (%)” value came to 95.8%.

B2: 556F6B8 (mouse antibody purified from hybridoma) (antibody, V domains shown)
VH: B1 VH
VL: B1 VL
notes: also called mAb123-556F6B8
As to B2, the Mean fluorescence intensity in test [3] is 2.8 MFI; in test [4], 52.2 MFI. In test [5], the “Inhibition rate (%)” value worked out at 95.9%.

B3: 405B8H3 (mouse antibody purified from hybridoma) (antibody, V domains shown)
VH: QVQLQQSGAELVRPGASVTLSCKASGYTFTDYEMHWVKQTPVHGLEWIGATDPETGNSAYNQKFKGKAIMTADKSSSTAYMELRSLTSEDSAVYYCISTGWNDWGQGTSLTVSS
VL: DIKMTQSPSSMYASLGERVTITCKASQDINSYLSWFQQKPGKSPKTLIYRADRLLDGVPSRFSGSGSGQDYSLTISSLEYGDMGIYYCLQYDEFPYTFGGGTKLEIK
notes: also called mAb103-405B8H3; 405B81-13
Consider B3, for which the results for the Mean fluorescence intensity in test [3] and in test [4] were 3.7 MFI and 139 MFI, respectively. Moreover, the “Inhibition rate (%)” value in test [5] is 94%.

B4: 105F1E10 (mouse antibody purified from hybridoma) (antibody, V domains shown)
VH: EVQLQQSGPELVKPGASVKMSCRASGYTFTDFKMHWMKQSHGKSLEWIGYIAPNNGGTAYNQKFRGKATLTVNESSNTAYMELRSLTSEDSAVYYCVDWDDVDYWGQGTTLTVSS
VL: B3 VL with P40S, D52N, L55V, G81E, D92V, Y96L, G100A, I106L
notes: also called mAb009-105F1E10
Turning to B4, the results for the Mean fluorescence intensity in test [3] and in test [4] were 3.7 MFI and 120 MFI, respectively. Moreover, in test [5], the “Inhibition rate (%)” value stood at 93.6%.

B5: 105F1E10 mouse-human chimeric antibody (antibody, V domains shown)
VH: B4 VH
VL: B3 VL with P40S, D52N, L55V, G81E, D92V, Y96L, G100A, I106L
notes: also called mAb009-105F1E10
In test [1], B5 returned a Mean fluorescence intensity of 5.72. In addition, the “Inhibition rate (%)” value in test [2] turned out to be 95.8%.

B6: 405B8H3 mouse-human chimeric antibody (antibody, V domains shown)
VH: B3 VH
VL: B3 VL
notes: also called mAb103-405B8H3
In test [1], B6 returned a Mean fluorescence intensity of 10.3. Further, the “Inhibition rate (%)” value in test [2] amounted to 95.7%.

B7: 409B11E12 mouse-human chimeric antibody (antibody, V domains shown)
VH: B3 VH with P41T, G56S, N57Y, M70L, S98A
VL: B3 VL with I2L, D52N, G81E
notes: also called mAb104-409B11E12
Turning to B7, the Mean fluorescence intensity in test [1] is 11.6. Moreover, the “Inhibition rate (%)” value in test [2] was 95.6%.

B8: 409D4E10 mouse-human chimeric antibody (antibody, V domains shown)
VH: B3 VH with Y27N, G56D, S58T, M70L, A72T, S98T, T99S
VL: B3 VL with D52N, G81E, D92N
notes: also called mAb112-409D4E10
B8 displayed a Mean fluorescence intensity in test [1] of 8.96. In test [2], the “Inhibition rate (%)” value was found to be 95.7%.

B9: 409D4E10 (mouse antibody purified from hybridoma) (antibody, V domains shown)
VH: B3 VH with Y27N, G56D, S58T, M70L, A72T, S98T, T99S
VL: B3 VL with D52N, G81E, D92N
notes: also called mAb112-409D4E10
For the molecule B9, the Mean fluorescence intensity is 2.8 MFI in test [3] and 153 MFI in test [4]. Also, the “Inhibition rate (%)” value in test [5] worked out at 96%.

B10: 409B11E12 (mouse antibody purified from hybridoma) (antibody, V domains shown)
VH: B3 VH with P41T, G56S, N57Y, M70L, S98A
VL: B3 VL with I2L, D52N, G81E
notes: also called mAb104-409B11E12
Consider B10, for which the Mean fluorescence intensity was determined as 2.5 MFI in test [3] and 134 MFI in test [4]. The “Inhibition rate (%)” value in test [5] stood at 95.5%.
